This is an account of results in PMC10439950 (2023).

Sequences and labels used below:
B4: extracellular domain of cynomolgus CD98hc (domain or fragment)
chain: ELPAQKWWHTGALYRIGDLQAFQGHGSGNLAGLKGRLDYLSSLKVKGLVLGPLHKNQKDDVAQTDLLQIDPNFGSKEDFDNLLQSAKKKSIRVILDLTPNYRGENLWFSTQVDSVATKVKDALEFWLQAGVDGFQVRDIENLKDASSFLAEWENITKGFSEDRLLIAGTNSSDLQQIVSLLESNKDLLLTSSYLSDSSFTGEHTKSLVTQYLNATGNRWCSWSLSQAGLLTSFLPAQLLRLYQLMLFTLPGTPVFSYGDEIGLKAAALPGQPVEAPVMLWDESSFPDIPGAVSANMTVKGQSEDPGSLLSLFRQLSDQRSKERSLLHGDFHTFSSGPGLFSYIRHWDQNERFLVVLNFGDVGLSAGLQASDLPASASLPTKADLVLSTQPGREEGSPLELERLKLEPHEGLLLRFPYVA

Some targets named below: TV6.d12; TV6.d3; TV6.38; TV6.d6; ATV^CD98hc.6.29:DNP (human, UniProt P01857 = IgG part); ATV^CD98hc.6.39 (human, UniProt P01857 = IgG part).
Holding throughout (assay): SPR
For orientation: SPR reads the build-up and loss of mass on a sensor chip optically.

The target in test [1] is B4.

B1: ATV^CD98hc.6.8:DNP (designed binder)
chain: DKTHTCPPCPAPELLGGPSVFLFPPKPKDTLMISRTPEVTCVVVDVSHEDPEVKFNWYVDGVEVHNAKTKPREEQYNSTYRVVSVLTVLHQDWLNGKEYKCKVSNKALPAPIEKTISKAKGQPREPQVYTLPPSRDELTKNQVSLTCLVKGFYPSDIAVLWNSRFVLENNYKTTPPVLDSDGSFFLYSKLTVDKSRWQQGEIFACNVYHEALHNHYTFKNLALSPGK
By Kd is commonly meant the concentration at which binding is half-saturated. High values mean a looser complex, low ones a tighter complex. Molecule B1 registered a Kd in test [1] of 890 nM.

B2: TV6.6 as the ATV^CD98hc:DNP clone (designed binder)
chain: DKTHTCPPCPAPELLGGPSVFLFPPKPKDTLMISRTPEVTCVVVDVSHEDPEVKFNWYVDGVEVHNAKTKPREEQYNSTYRVVSVLTVLHQDWLNGKEYKCKVSNKALPAPIEKTISKAKGQPREPQVYTLPPSRDELTKNQVSLTCLVKGFYPSDIAVLWNSRFVLENNYKTTPPVLDSDGSFFLYSKLTVDKSRWQQGNIFACNVYHEALHNHYTFKNLALSPGK
For B2, in test [1], the Kd is 2100 nM.

B3: extracellular domain of human CD98hc (domain or fragment)
chain: RAPRCRELPAQKWWHTGALYRIGDLQAFQGHGAGNLAGLKGRLDYLSSLKVKGLVLGPIHKNQKDDVAQTDLLQIDPNFGSKEDFDSLLQSAKKKSIRVILDLTPNYRGENSWFSTQVDTVATKVKDALEFWLQAGVDGFQVRDIENLKDASSFLAEWQNITKGFSEDRLLIAGTNSSDLQQILSLLESNKDLLLTSSYLSDSGSTGEHTKSLVTQYLNATGNRWCSWSLSQARLLTSFLPAQLLRLYQLMLFTLPGTPVFSYGDEIGLDAAALPGQPMEAPVMLWDESSFPDIPGAVSANMTVKGQSEDPGSLLSLFRRLSDQRSKERSLLHGDFHAFSAGPGLFSYIRHWDQNERFLVVLNFGDVGLSAGLQASDLPASASLPAKADLLLSTQPGREEGSPLELERLKLEPHEGLLLRFPYAA
With B3, the Kd with TV6.d12 was determined as 2100 nM; in the test with TV6.d3, 275 nM; with TV6.38 it was 43 nM; in the test with TV6.d6, 550 nM; with ATV^CD98hc.6.29:DNP it was 20 nM.

Consider B4, for which the Kd with TV6.d12 amounted to 6000 nM; with TV6.d3, 2500 nM; with TV6.38, 250 nM; in the test with ATV^CD98hc.6.39, 485 nM; in the test with TV6.d6, 5000 nM.
